In paper PMC12875140 (Nature microbiology, 2026):

Tests used:
[1] = biological target: 6×-His-SUMO-Avs8A (E. coli ECOR07) (UniProt B7LDL1); assay: mass photometry; conditions: scale: Bas21 mcp monomers per four Avs8 monomers
[2] = biological target: 6×-His-SUMO-Avs8A (E. coli ECOR07) (UniProt B7LDL1); assay: MST
6×-His-SUMO-Avs8A = biological target: T1, 6×-His-SUMO-Avs8A (E. coli ECOR07, UniProt B7LDL1 1-1283); assay: MST
T1 sequence (looked up): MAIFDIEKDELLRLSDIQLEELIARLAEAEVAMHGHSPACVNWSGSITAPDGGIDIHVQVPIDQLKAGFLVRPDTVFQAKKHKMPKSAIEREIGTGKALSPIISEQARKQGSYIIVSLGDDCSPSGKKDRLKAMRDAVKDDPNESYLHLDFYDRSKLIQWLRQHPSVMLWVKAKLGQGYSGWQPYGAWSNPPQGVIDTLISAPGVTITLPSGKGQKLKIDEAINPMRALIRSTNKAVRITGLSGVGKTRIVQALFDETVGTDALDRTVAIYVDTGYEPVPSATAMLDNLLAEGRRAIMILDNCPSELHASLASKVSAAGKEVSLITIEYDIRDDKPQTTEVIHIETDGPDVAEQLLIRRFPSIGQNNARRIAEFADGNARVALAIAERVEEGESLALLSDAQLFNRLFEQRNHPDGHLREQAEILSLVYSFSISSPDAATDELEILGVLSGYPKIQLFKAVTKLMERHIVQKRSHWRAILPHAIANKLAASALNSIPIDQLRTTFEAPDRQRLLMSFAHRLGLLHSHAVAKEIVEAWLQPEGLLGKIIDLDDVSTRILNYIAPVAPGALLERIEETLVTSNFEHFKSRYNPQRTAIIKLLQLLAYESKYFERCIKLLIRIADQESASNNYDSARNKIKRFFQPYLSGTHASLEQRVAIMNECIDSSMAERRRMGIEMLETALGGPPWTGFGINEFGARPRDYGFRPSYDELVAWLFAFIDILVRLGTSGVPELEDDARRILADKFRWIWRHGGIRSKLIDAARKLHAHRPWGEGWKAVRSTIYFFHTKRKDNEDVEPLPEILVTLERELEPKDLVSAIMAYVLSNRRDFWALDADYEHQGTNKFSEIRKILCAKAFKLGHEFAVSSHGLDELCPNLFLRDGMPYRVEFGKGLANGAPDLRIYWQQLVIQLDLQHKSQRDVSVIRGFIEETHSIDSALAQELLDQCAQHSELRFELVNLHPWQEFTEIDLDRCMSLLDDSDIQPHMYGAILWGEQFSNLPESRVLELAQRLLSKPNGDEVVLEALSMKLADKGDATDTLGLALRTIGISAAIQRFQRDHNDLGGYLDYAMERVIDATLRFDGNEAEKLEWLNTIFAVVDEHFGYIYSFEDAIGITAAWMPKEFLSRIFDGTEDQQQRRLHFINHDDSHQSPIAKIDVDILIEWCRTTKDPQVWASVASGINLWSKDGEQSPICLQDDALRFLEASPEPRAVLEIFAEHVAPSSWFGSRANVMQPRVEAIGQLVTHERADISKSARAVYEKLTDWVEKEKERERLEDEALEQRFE

**Q.** “Bas21 major capsid protein (natural protein)” was tested. Which stoichiometry N [1] did it give?
**A.** The stoichiometry N was 2.

**Q.** And the Kd [2]?
**A.** Its Kd is 12 nM.

B1: λ gpE major capsid protein (natural protein, phage λ, UniProt P03713 1-341, looked up)
chain: MSMYTTAQLLAANEQKFKFDPLFLRLFFRESYPFTTEKVYLSQIPGLVNMALYVSPIVSGEVIRSRGGSTSEFTPGYVKPKHEVNPQMTLRRLPDEDPQNLADPAYRRRRIIMQNMRDEELAIAQVEEMQAVSAVLKGKYTMTGEAFDPVEVDMGRSEENNITQSGGTEWSKRDKSTYDPTDDIEAYALNASGVVNIIVFDPKGWALFRSFKAVKEKLDTRRGSNSELETAVKDLGKAVSYKGMYGDVAIVVYSGQYVENGVKKNFLPDNTMVLGNTQARGLRTYGCIQDADAQREGINASARYPKNWVTTGDPAREFTMIQSAPLMLLADPDEFVSVQLA
**Q.** With B1 as the molecule, how does the Kd (6×-His-SUMO-Avs8A) read?
**A.** Its Kd is 124 nM.
